Data: the DeepSol protein solubility set

assay: soluble on expression in E. coli; label from the status in PepcDB or PDB records

Sequence | soluble on expression in E. coli
MDELSDIGDWSLIQSFLAVAETGSLSAAARQLDRSQPTLGRHVQALEQALGLSLFDRHARGLKLSADGARILPLAQQAHRAMTAISVTAAGQSQSLAGTVRITASVFASHHILPPILADIRAAEPAIELELVPSDTTENLLFRAADIAVRMYRPRQVDIVARHIGDVPLCACAATSYLERKGRPTRAEDLLDFDLVGYDADPIIVKTMQALGWPVTRHSFAMRCDNQSAYWQLIRAGCGIGFGQRSIVAADPLVEVLPFELPVPPLEMWLAAPQAMRLTPRIRRVWDLLAAGLLAAPL | not soluble
AMGTKSSAAVALKGLQFVTAKVGNDGWAAVEKRFNQLQVDGVLLRSRFGKCIGMDGSDEFAVQMFDSLARKRGIVKQVLTKDELKDFYEQLTDQGFDNRLRTFFDMVDKNADGRLTAEEVKEIIALSASANKLSKIKERADEYTALIMEELDPTNLGYIEMEDLEALLLQSPSEAAARS | soluble
METRQASGQLAALVRPNDVNSGSLLFPSKEPGFYVEAPRLKTDVAIDVSGPIARVKVTQRFQNPSQGWIEGTYVFPLPDNSAVDALKMQIGDRFIEGQIKPRQEAREIYEQAKAEGKKTALLEQQRPNIFTNQVANIGPGEEIVVQIEYQQTVHQSGGEFSLRFPMVVAPRYNPAPIVQTVDFNNGAGFAIPRDPVQNREKIEAPVLDPRENARINPVSLTVNLKAGFPLGEVKSSFHDVDIGQDGDQARTISLKGDAVPADKDFELTWKAAPGKTPSAGLFREAIDGKTYLLAFVTPPTAPDAAAPSKREVVFVIDNSGSMSGQSIEQARQSLALAISRLNPNDRFNVIRFDDTMTDYFKGLVAATPDNREKAVAYVRSLTADGGTEMLPALEDALRNQGPVASGALRQVVFLTDGAIGNEQQLFQEITANRGDARVFTVGIGSAPNTYFMTKAAEVGRGTFTQIGSTDQVASRMSELFAKLQNPTMTDIAASFEGIEAEDITPNPMPDLYSGEPVVLTAELPQDKAAGKLQIVGKTGDQPWRVEMDIANAAVGSGISKLWARRKIDDLEARAYERQDPAALDKDIEAVALAHHLVSRVTSLVAVDVTPSRPANEPLGSAKLPLNLPEGWDFGKVFGEKAVPSGGAERHGAATPAGSAEPQRAAAATQDLAASPEIANLMAAAPTAKAATLIAQKSSTVNLPQTATRADEQIMRGLEHHHHHH | soluble
MHKTHSTMSGKSMKVIGVLALQGAFLEHTNHLKRCLAENDYGIKIEIKTVKTPEDLAQCDALIIPGGESTSMSLIAQRTGLYPCLYEFVHNPEKVVWGTCAGLIFLSAQLENESALVKTLGVLKVDVRRNAFGRQAQSFTQKCDFSNFIPGCDNFPATFIRAPVIERILDPIAVKSLYELPVNGKDVVVAATQNHNILVTSFHPELADSDTRFHDWFIRQFVSN | soluble
GSHMGDKEKETLFKDYLNLIVVKMTEWIGNLEKAEFDVFLERSTPPHSDSDGLLFLDGTKTCFQMFTQQVEVAAGTNQAKILVGVVERFSDLLTKRQKNWISKISEEIKKQINYNHKYDIDPESITPEDECPGGLVEYLIAVSNDQMKAADYAVAISSKYGKLVSKVYEKQITNHLEGTLDGFAEVAQCSSLGLITLMFDDLRKPYQEIFSKTWYMGSQAQQIADTLDEYLLDIKPQMNSVLFVNFIDNVIGETIIKFLTALSFEHSFKNKNNKFLEAMKRDFEIFYQLFVKVLDGNESKDTLITQNFTVMEFFMDLSCEPIDSILDIWQKYLEVYWDSRIDLLVGILKCRKDVSSSERKKIVQQATEMLHEYRRNMEANGVDREPTLMRRFVLEFEKQ | soluble
MRILADENIPVVDAFFADQGSIRRLPGRAIDRAALAEVDVLLVRSVTEVSRAALAGSPVRFVGTCTIGTDHLDLDYFAEAGIAWSSAPGCNARGVVDYVLGCLLAMAEVRGADLAERTYGVVGAGQVGGRLVEVLRGLGWKVLVCDPPRQAREPDGEFVSLERLLAEADVISLHTPLNRDGEHPTRHLLDEPRLAALRPGTWLVNASRGAVVDNQALRRLLEGGADLEVALDVWEGEPQADPELAARCLIATPHIAGYSLEGKLRGTAQIYQAYCAWRGIAERVSLQDVLPETWLAGLQLNPGCDPAWALATLCRAVYDPRSDDAAFRRSLTGDSATRRAAFDALRKHYPPRREITGLRVATGGQAELQRVVRALGAQLV | soluble
MTSLPPRNRSASLFEGSPFAPSSTTSPPTSSLAKMLKSEPIPCLRCGNVGSPTGSVPMSLHKVSSINRSAGTNPASRGGESSLELEAIAAVHELSFAVQSISVSEMLPRTPDLIFVNVTTLEAQPYCLELTLKGWRITSLRSDCMVGDFTRLELFTKYYDSLYLLMDDISPGYRERFSEKLVQRLKLIEAGEEDQVAPCASLQSPSLSTDSSSKESQYSSTESLPIVTPVSTPAIDPDFKPKFK | not soluble
MSKQQPTQFINPETPGYVGFANLPNQVHRKSVKKGFEFTLMVVGESGLGKSTLINSLFLTDLYPERVIPGAAEKIERTVQIEASTVEIEERGVKLRLTVVDTPGYGDAINCRDCFKTIISYIDEQFERYLHDESGLNRRHIIDNRVHCCFYFISPFGHGLKPLDVAFMKAIHNKVNIVPVIAKADTLTLKERERLKKRILDEIEEHNIKIYHLPDAESDEDEDFKEQTRLLKASIPFSVVGSNQLIEAKGKKVRGRLYPWGVVEVENPEHNDFLKLRTMLITHMQDLQEVTQDLHYENFRSERLKRGGRKVENEDMNKDQILLEKEAELRRMQEMIARMQAQMQMQMQGGDGDGGALGHHV | soluble
MNMDFNLFMNDIVRQARQEITAAGYTELKTAEEVDEALTKKGTTLVMVNSVCGCAGGIARPAAYHSVHYDKRPDQLVTVFAGQDKEATARARDYFEGYPPSSPSFAILKDGKIMKMVERHEIEGHEPMAVVAKLQEAFEEYCEEV | not soluble
VALTVYYPPRVVSLEEPELRLEHCIEFVVRGNPPPTLHWLHNGQPLRESKIIHVEYYQEGEISEGCLLFNKPTHYNNGNYTLIAKNPLGTANQTINGHFLKEPFPVDEVSPTPPITVT | soluble
KRRIRQLELQVRMLEADKERLERELSRLRSEMSRLRQPPAFAGSVIEVLDDDRAIVQNYNGPRFVVRIAPWIDKSKLRPGTRVALDQRTMAIIEILPASKDPAVLGFEVVERPN | not soluble
MQNMFDGVQLFVEVVEAGGFAKAGKRLSLTRSTIGKAIARLEMRLGVQLFQRTTRVQSLTEDGQQYYERCLRAIKELRAGEAMLEQGRREVAGRLHVSLPVLFGRQCVAPILRTYAREHPQLELELNFSDHHVDLIADGFDLAVRNGPLGNGTTLRARRLGNQRKILCASPTYLAARGKPHTLADLADHDLLTYCRNDRNMAWTLPDATGALVDIPITSRLRCNDLEVIADTAVDGMGVAWLPYWLLMERMQRGELIGIWGDRPSAVIECHVVWPAAQHVPLRSRLAINLLAAELPKYLEA | not soluble
MGSDKIHHHHHHMNLYVGLDVGTTGVKGILVNEKGEILATANERLTMFTPQPAWAEQDPLSWWEAVKKILKNLSERSKEMGGKIRAISTSGQMHSLVAIDDNGKVLRNAILWCDQRTYKECEEATQILGGEENVLKLVGNPILPGFTLPKILWIRKHEPEIYGKISKIMLPKDFINYMLTGEVKTEHSDASGTVMYSVSKMEWNKDVLKELNIPESVLPEIIPSNGVVGNVKPEVASDLGLSEDTLVIGGGADNACAALGIAVVEPGDVMVSLGTSGTVLAPTKGNQPDPKGRVHFFAHTVPETRYHMGVMLSATYSLEWFKEKFLSEDYETINEEVDKIPAGSNGIIFLPYLNGERTPHRDPFARGVFFGISSYNTKWDMVRAIFEGVAFGIKDSFDILRELKVVLNSVRITGGGSKSRVWNKMLADMTGLRIQKPAVDEGASYGAAILAVSGSMGENPAKISKEWFRVKSYTDPAVENTETYEKLHEKFKKLYTSLKEMFRS | not soluble
LDSLNELAVFVDTELKIIWANKAALEYMNMGLEKAIGVCLKVAPGISGPLVEHLNLEEIFTTGEKKSGEYTAQDGRVWFAQAIPVPDEQGKIIGILQTCRDVT | not soluble
MAHHHHHHMLCLVRAAEPKPYTALSPEALYEAVQPHDHTLRPSPFIAHQALMDFYKACDGYYGVNREEVDVQQLTSFEHKKTHGGASSGNNSGSNSGATLSSLLSGSASAAPSSSLSAAAGAPPLPPLPSPDDPNLAEKLNDYRIAQLRRNAQHVDNTVYHAHNSSNGGSNSNVANAGSSGVCHFYRTPEGCQRGAACPFTHLDKHGQPVNRVAKS | soluble
MNIVLMGLPGAGKGTQAERIVEKYGIPHISTGDMFRAAMKEETPLGLEAKSYIDKGELVPDEVTIGIVRERLSKSDCERGFLLDGFPRTVAQAEALEEILEEMGRPIDYVINIQVDKEELMERLTGRRICSVCGTTYHLVFNPPKTPGICDKDGGELYQRADDNEETVTKRLEVNMKQTAPLLAFYDSKEVLVNVNGQQDIQDVFADVKVILGGLKQ | soluble
MGSDKIHHHHHHMRTDNKLSGIIAKKHSFSVPLDYQQSPSEQINLFVRELSSVEHQNKELPYLVFFQGGPGFGAVRPVANTGWIKRALTQYRVLLLDQRGTGLSTPVSAESLAHLTSQQQAEYLSHFRSDNIIRDAELIRAKLSPDRPWSILGQSFGGFCVLRYLSAAPQGLKAAYITGGIPSLERSADEVYQATYQRVLAKNQDFFSRFSDARELANRLASHISEYEVLLSSGERLTVEMLQLLGINLGMEQGPEGVYYLLEQALIDTAQGVKVNPLFLHQFGQFLDYNTNPLFAVLHESIYCQNSASNWAAHRVREQYSQFNYHLGKDLLFTGEMVYPWMFDQFSQLQPLKEAAELLAAKSDWPALYDLEQLKANTVPVSAAIYSEDMFVEMQYSLETTKDVGSLKYWLTSEYEHNGIRMDGERVLDKLIALNTGRELR | not soluble
MPERFVEMLREENGKIIVRIPGETARYANLEGKEGEYLLVDLVKVFDPHLKLPTHSIGEKAICRTVTFRDNRGYEHLGLEIPQELVNDYGMKAGEYLEAVIEHAILRDKIAAVYPNLEILNQYPYWWRKISQ | not soluble
GSMFTPKPPQDSAVIKAGYCVKQGAVMKNWKRRYFQLDENTIGYFKSELEKEPLRVIPLKEVHKVQECKQSDIMMRDNLFEIVTTSRTFYVQADSPEEMHSWIKAVSGAIVAQRGPGRSASSEHP | soluble
MSHIFDASVLAPHIPSNLPDNFKVRPLAKDDFSKGYVDLLSQLTSVGNLDQEAFEKRFEAMRTSVPNYHIVVIEDSNSQKVVASASLVVEMKFIHGAGSRGRVEDVVVDTEMRRQKLGAVLLKTLVSLGKSLGVYKISLECVPELLPFYSQFGFQDDCNFMTQRF | soluble
MAHHHHHHMERFRSEDVAEGAFTLNLDECGASLIELHAPLNGLAFMMQDAVVAQLAMGSTLAGSDAAKAPQDDHDGTTVNFRTLSTSAAGAIDALLSEMSARRVHFVSGVVTDAMLDVEGVTIIDPLPLEPRLNRFQRNMIRLSLTLEQQFFLLAEYLGNTSGGCAHGVIGSGEAAALAVDVWRVAGFCDALVDHLWWRGRCVCGGPFSWRCRWDCAARGVARRCARACRVLGVFTPAR | not soluble
MQERDKEPLQERFFRPHFLQAPGDMVAHEGRLCRLDCKVSGLPPPELTWLLNGQPVLPDASHKMLVRGTGVHSLLIDPLTQRDAGTYTCVATNKTGQNSFSLELTVVAKEVKKAPVILEKLQNSGVPEGHPVRLEGRVIGMPPPVFYWKKDNETIPFTRERISMHQDTTGYVCLLIQPAKKSDAGWYTLSAKNEAGIVSCTARLDIYAQWHQQIPTPISIRPSGSRYGSLTSKGLDIFSAFSSVESTMLYSCTSRSVVESDEL | not soluble
